Results on 1 molecule are retold here after PMC7097325.

This series addresses Influenza A nucleoprotein (NP), wild type (Influenza A virus A/WSN/33 (H1N1), UniProt P15682 1-498). The series is described as follows: EMSA. On the technique in general: In EMSA bound probe runs differently from free probe, usually more slowly.

For UUUGUUACACACACACACGCUGUG (ssRNA) [24-nt RNA oligomer], the binding result is listed as “binds”.
